Results on two molecules are retold here after patent US20150023979A1 (VALDOSPAN, published 2015).

Experiment [1] concerns the target T1, HPV6 E7 protein (low risk type), recombinant (His-TEV-E7 fusion from E. coli) (Human Papilloma Virus type 6 (HPV6), UniProt Q84292 1-98).
T1 construct: mature; the only HPV6 entry in the list of constructs is VE7_HPV6A; also called VE7_HPV6A; not shown: N-terminal 6x Histidine tag and TEV cleavage site of the vector
T1 sequence: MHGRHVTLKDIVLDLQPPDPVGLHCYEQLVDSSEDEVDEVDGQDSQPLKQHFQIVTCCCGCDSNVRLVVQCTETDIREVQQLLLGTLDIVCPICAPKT
Nature of the experiment: ELISA and dot-blot. Background: In an ELISA, binding on a coated surface is turned into a signal by an enzyme label.

The target in experiment [2] is T2, HPV5 E7 protein (beta-papillomavirus), recombinant (His-TEV-E7 fusion from E. coli) (Human Papilloma Virus type 5 (HPV5), UniProt P06932 1-103).
T2 construct: mature; also called VE7_HPV05; not shown: N-terminal 6x Histidine tag and TEV cleavage site of the vector
T2 sequence: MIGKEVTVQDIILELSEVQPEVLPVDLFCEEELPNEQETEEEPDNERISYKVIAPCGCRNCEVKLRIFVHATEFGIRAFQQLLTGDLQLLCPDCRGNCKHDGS
Nature of the experiment: ELISA and dot-blot.

Experiment [3] concerns the target T3, HPV11 E7 protein (low risk type), recombinant (His-TEV-E7 fusion from E. coli) (Human Papilloma Virus type 11 (HPV11), UniProt P04020 1-98).
T3 construct: mature; also called VE7_HPV11; not shown: N-terminal 6x Histidine tag and TEV cleavage site of the vector
T3 sequence: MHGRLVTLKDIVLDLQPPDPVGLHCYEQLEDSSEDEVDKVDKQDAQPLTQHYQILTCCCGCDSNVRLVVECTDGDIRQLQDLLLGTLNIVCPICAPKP
In words: ELISA and dot-blot.

Experiment [4] addresses T4, HPV38 E7 protein (beta-papillomavirus), recombinant (His-TEV-E7 fusion from E. coli) (Human Papilloma Virus type 38 (HPV38), UniProt Q80908 1-100).
T4 construct: mature; also called HPVE7 38; VE7_HPV38; not shown: N-terminal 6x Histidine tag and TEV cleavage site of the vector
T4 sequence: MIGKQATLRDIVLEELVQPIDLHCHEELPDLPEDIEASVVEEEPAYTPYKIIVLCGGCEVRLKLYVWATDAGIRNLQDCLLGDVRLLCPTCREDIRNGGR
In words: ELISA and dot-blot.

Experiment [5] addresses T5, HPV31 E7 protein, recombinant (His-TEV-E7 fusion from E. coli) (Human Papilloma Virus type 31 (HPV31), UniProt P17387 1-98, CKII phosphorylation of the consensus site serines in the antigen preparation of Example 2).
T5 construct: mature; also called VE7_HPV31; not shown: N-terminal 6x Histidine tag and TEV cleavage site of the vector
T5 sequence: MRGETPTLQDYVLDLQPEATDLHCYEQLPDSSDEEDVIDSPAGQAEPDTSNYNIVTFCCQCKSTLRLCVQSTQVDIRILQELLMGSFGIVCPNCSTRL
Nature of the experiment: ELISA and dot-blot, semiquantitative crossreactivity (++ strong positive).

In experiment [6] the target is T6, HPV58 E7 protein, recombinant (His-TEV-E7 fusion from E. coli) (Human Papilloma Virus type 58 (HPV58), UniProt P26557 1-98, CKII phosphorylation of the consensus site serines in the antigen preparation of Example 2).
T6 construct: mature; also called VE7_HPV58; not shown: N-terminal 6x Histidine tag and TEV cleavage site of the vector
T6 sequence: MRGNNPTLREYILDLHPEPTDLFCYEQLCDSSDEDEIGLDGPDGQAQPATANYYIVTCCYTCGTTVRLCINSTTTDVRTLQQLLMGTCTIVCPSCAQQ
The description is as above.

Experiment [7] addresses T7, HPV33 E7 protein, recombinant (His-TEV-E7 fusion from E. coli) (Human Papilloma Virus type 33 (HPV33), UniProt P06429 1-97, CKII phosphorylation of the consensus site serines in the antigen preparation of Example 2; biotin on primary amines in the SPR assay).
T7 construct: mature; also called VE7_HPV33; not shown: N-terminal 6x Histidine tag and TEV cleavage site of the vector
T7 sequence: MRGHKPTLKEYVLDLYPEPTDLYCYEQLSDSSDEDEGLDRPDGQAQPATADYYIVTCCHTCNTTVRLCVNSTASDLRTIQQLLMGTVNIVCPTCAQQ
Described as above.

Experiment [8] deals with T8, HPV52 E7 protein, recombinant (His-TEV-E7 fusion from E. coli) (Human Papilloma Virus type 52 (HPV52), UniProt P36831 1-99, CKII phosphorylation of the consensus site serines in the antigen preparation of Example 2).
T8 construct: mature; also called VE7_HPV52; not shown: N-terminal 6x Histidine tag and TEV cleavage site of the vector
T8 sequence: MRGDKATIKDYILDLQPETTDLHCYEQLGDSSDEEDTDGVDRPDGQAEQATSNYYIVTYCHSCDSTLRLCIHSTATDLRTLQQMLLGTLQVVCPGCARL
The description is as above.

Experiment [9] deals with T9, HPV18 E7 protein, recombinant (His-TEV-E7 fusion from E. coli) (Human Papilloma Virus type 18 (HPV18), UniProt P06788 1-105, CKII phosphorylation of the consensus site serines in the antigen preparation of Example 2; biotin on primary amines in the SPR assay).
T9 construct: mature; also called VE7_HPV18; not shown: N-terminal 6x Histidine tag and TEV cleavage site of the vector
T9 sequence: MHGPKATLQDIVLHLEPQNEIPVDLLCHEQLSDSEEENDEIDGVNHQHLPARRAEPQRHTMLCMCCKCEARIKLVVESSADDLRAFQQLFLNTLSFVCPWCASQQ
In words: ELISA and dot-blot, semiquantitative crossreactivity.

Experiment [10] has as its target T10, HPV35 E7 protein, recombinant (His-TEV-E7 fusion from E. coli) (Human Papilloma Virus type 35 (HPV35), UniProt P27230 1-99, CKII phosphorylation of the consensus site serines in the antigen preparation of Example 2).
T10 construct: mature; also called VE7_HPV35; not shown: N-terminal 6x Histidine tag and TEV cleavage site of the vector
T10 sequence: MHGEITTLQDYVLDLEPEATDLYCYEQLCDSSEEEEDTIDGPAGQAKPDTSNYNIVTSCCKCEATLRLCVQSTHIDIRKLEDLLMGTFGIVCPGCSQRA
Described as above.

Experiment [11] has as its target T11, HPV56 E7 protein, recombinant (His-TEV-E7 fusion from E. coli) (Human Papilloma Virus type 56 (HPV56), UniProt P36833 1-105, CKII phosphorylation of the consensus site serines in the antigen preparation of Example 2).
T11 construct: mature; also called VE7_HPV56; not shown: N-terminal 6x Histidine tag and TEV cleavage site of the vector
T11 sequence: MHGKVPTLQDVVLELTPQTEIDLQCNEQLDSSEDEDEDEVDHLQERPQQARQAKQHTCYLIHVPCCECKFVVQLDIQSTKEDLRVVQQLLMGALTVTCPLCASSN
The experiment is described as above.

The target of experiment [12] is T12, HPV45 E7 protein, recombinant (His-TEV-E7 fusion from E. coli) (Human Papilloma Virus type 45 (HPV45), UniProt P21736 1-106, CKII phosphorylation of the consensus site serines in the antigen preparation of Example 2; biotin on primary amines in the SPR assay).
T12 construct: mature; also called VE7_HPV45; not shown: N-terminal 6x Histidine tag and TEV cleavage site of the vector
T12 sequence: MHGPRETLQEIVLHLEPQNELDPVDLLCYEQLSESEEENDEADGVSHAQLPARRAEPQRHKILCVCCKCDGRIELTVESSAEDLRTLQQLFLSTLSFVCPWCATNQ
The experiment is described as above.

In experiment [13] the target is T13, HPV51 E7 protein, recombinant (His-TEV-E7 fusion from E. coli) (Human Papilloma Virus type 51 (HPV51), UniProt P26558 1-101, CKII phosphorylation of the consensus site serines in the antigen preparation of Example 2).
T13 construct: mature; also called VE7_HPV51; not shown: N-terminal 6x Histidine tag and TEV cleavage site of the vector
T13 sequence: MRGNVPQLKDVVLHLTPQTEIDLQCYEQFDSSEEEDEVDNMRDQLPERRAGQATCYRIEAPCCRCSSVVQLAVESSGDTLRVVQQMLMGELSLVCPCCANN
Described as above.

The target in experiment [14] is T9, HPV18 E7 protein, recombinant …. In words: ELISA and dot-blot, semiquantitative crossreactivity; antigens denatured for this antibody.
Experiment [15] concerns the target T11, HPV56 E7 protein, recombinant …. The experiment is described as above.
The target in experiment [16] is T12, HPV45 E7 protein, recombinant …. The description is as above.
Experiment [17] concerns the target T13, HPV51 E7 protein, recombinant …. Described as above.
Experiment [18] deals with T6, HPV58 E7 protein, recombinant …. Nature of the experiment: ELISA and dot-blot, semiquantitative crossreactivity (++ strong positive); antigens denatured for this antibody.
Experiment [19] deals with T10, HPV35 E7 protein, recombinant …. The experiment is described as above.
The target in experiment [20] is T8, HPV52 E7 protein, recombinant …. Described as above.

B1: ACAB167 (antibody, V domains shown)
VH: EVQLEESGGGLVQPKGSLKLSCTASGFPFNTYAMNWVRQAPGKGLEWVARIRTKSNNYATYYADSVKDRFTISRDDSQNMLYLQMNNLKTEDTAMYYCVRLYGYYFDYWGQGTTLTVSS
VL: DIVMTQSPEIMSASPGEKVTMTCSASSSVSFMFWYQQKSGTSPKIWIYDTSKLASGVPARFSGSGSGTSYSLTVSSMEAEDAATYYCQQWNSNPPTFGVGTKLELKR
notes: the printed entries run on into the first residues of the constant domains; also called HPV16E7 IgG2b antibody ACAB167
Regarding B1, the binding result in [1] is “no binding”; in experiment [2], “no binding”; in experiment [3], “no binding”; in [4], “no binding”; in [5] it was “binds”; in experiment [6], “binds”. For the same molecule, the binding result in experiment [7] was “binds”; in experiment [8] it was “binds”; in experiment [9], “no binding”; in experiment [10] it was “no binding”; in [11] it was “no binding”; in experiment [12], “no binding”. Moreover, the binding result in experiment [13] is reported as “no binding”.

B2: ACAB337 (antibody, IgG1, V domains shown)
VH: DVQLQESGPGLVKPSQSLSLTCTVTGHSITSDYAWNWIRQFPGNKLEWVAYISYSGGTGYNPSLKSRISITRDTSKPNQFFLQLNSVTTEDTATYYCACGDYYYGPRDYWGQGTSVTVSS
VL: DILLTQSPAILSVSPGERVSFSCRASQSIGTSIHWYQQRTNGSPRLLIKYASESISGIPSRFSGSGSGTDFTLSINSVESEDIADYYCQQSNYWPFTFGSGTKLEIKR
notes: also called HPV33E7 IgG1 antibody ACAB337
As to B2, the binding result in experiment [1], in experiment [2], in experiment [3], in experiment [4], in experiment [14] and in [15] was “no binding” in each case. The binding result is “no binding” in experiment [16]; “no binding” in [17]; “binds” in experiment [18]; “binds” in experiment [19]; “binds” in [20].
